Consider 5 molecules from paper PMC280649 (BMC Biochemistry, 2003).

Where “and” joins values, the source holds several entries; their conditions need not be identical. Equal values may be shown once.

The term Kd denotes a measure of binding affinity in units of concentration. As a reminder, the koff is the first-order rate constant of dissociation.

The target of data set [1] is CAR (Homo sapiens) (UniProt P78310). To be noted: cited from earlier work.
Data set [2] deals with CD31 (Homo sapiens) (UniProt P16284). The settings on record: cited from earlier work.
Data set [3] addresses CD150 (Homo sapiens) (UniProt Q13291). The experiment in a line: SPR. To be noted: cited from earlier work.
Data set [4] deals with NCAM (UniProt P13591). The settings on record: cited from earlier work.
Data set [5] deals with the molecule itself. Nature of the data set: SPR. (Surface plasmon resonance follows binding to a sensor surface in real time, without labels.)
Data set [6] deals with the molecule itself. The experiment in a line: SPR. The source holds these as a separate data set.

For the molecule CAR (from UniProt P78310), the equilibrium dissociation constant (Kd) in data set [1] is 16 µM.

On to CD31 (from UniProt P16284), for which the Kd in data set [2] is 12.5 µM.

Consider CD150 (from UniProt Q13291), for which the Kd in data set [3] was 200 µM.

Turning to NCAM (from UniProt P13591), the Kd in data set [4] is 100 µM.

B1: mCD147d0-2rCD4d3+4 (mouse CD147 domains 0 to 2 fused to rat CD4 domains 3 and 4) (domain or fragment, UniProt P18572 22-325, looked up)
chain: AAGFLKAPLSQERWAGGSVVLHCEAVGSPIPEIQWWFEGNAPNDSCSQLWDGARLDRVHIHAAYRQHAASSLSVDGLTAEDTGTYECRASSDPDRNHLTRPPRVKWVRAQASVVVLEPGTIQTSVQEVNSKTQLTCSLNSSGVDIVGHRWMRGGKVLQEDTLPDLHTKYIVDADDRSGEYSCIFLPEPVGRSEINVEGPPRIKVGKKSEHSSEGELAKLVCKSDASYPPITDWFWFKTSDTGEEEAITNSTEANGKYVVVSTPEKSQLTISNLDVNVDPGTYVCNATNAQGTTRETISLRVRSR
modifications: biotin on the C-terminal biotinylation sequence (BirA enzyme) in the immobilised copy; the soluble copy was unbiotinylated
In data set [5], B1 came in with an off-rate constant (koff) of 0.7 s⁻¹ and a t1/2 of 1 s. Moreover, the Kd in data set [6] is 39 µM and 35 µM.
